Results as given in the supplement of paper PMC10724198.
± gives the standard deviation of the averaged measurements.
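Further: PSI is a weighted mean of sequencing reads over stability bins, variants kept only with over 10 reads, mCherry proximal and sfGFP distal, peptide attached via GGGS linker.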

Each sequence was assayed on Saccharomyces cerevisiae (assay: protein stability index of tFT-peptide fusion (C-terminal peptide) (PSI (0-1 scale)); higher = more stable (slower turnover)). Conditions: genetic background: wild type; temperature: 30 C.
VDCTCLPKRTYE gave a protein stability index of 0.643 ± 0.1.
Sequence VDGLRASRFVGS has a protein stability index of 0.7 ± 0.048.
For VDHIKAHSDSEE, the protein stability index was 0.756 ± 0.1.
With VDKLVRCISVSI the protein stability index was 0.5428 ± 0.0013.
VDLLFLMVGTSV showed a protein stability index of 0.574 ± 0.011.
In the case of VDRLDAACCIFC, the protein stability index is reported as 0.601 ± 0.031.
With VDVSVLVGLNFV the protein stability index was 0.797 ± 0.056.
VECEARTVEKAN showed a protein stability index of 0.63072 ± 0.00022.
Work on VECGVAGSLDLA yielded a protein stability index of 0.713 ± 0.014.
Sequence VEEYKKRNNKEG has a protein stability index of 0.64 ± 0.01.
Sequence VEHQVNMGDGEM has a protein stability index of 0.63525 ± 3.1e-05.
VEYSVVDKRLLY was tested, and the protein stability index was 0.651 ± 0.065.
VEYVRSGTLVSG showed a protein stability index of 0.658 ± 0.06.
VFFSCVRFCLWF showed a protein stability index of 0.562 ± 0.0082.
In the case of VFLISPSSFSPP, the protein stability index is reported as 0.738 ± 0.033.
With VFLNRGSHQQET the protein stability index was 0.691 ± 0.056.
VFLQRIDDKSPY gave a protein stability index of 0.712 ± 0.046.
For VFLRSGCSGWGE, the protein stability index was 0.827 ± 0.094.
For VFLRSPSRAPSL, the protein stability index was 0.72 ± 0.078.
Work on VFMPVGVGGGSC yielded a protein stability index of 0.678 ± 0.05.
In the case of VFPLSLLLTSFL, the protein stability index is reported as 0.591 ± 0.047.
With VFPSLCITSVCT the protein stability index was 0.53 ± 0.02.
Work on VFPVGSGLWRVF yielded a protein stability index of 0.63 ± 0.016.
VFRFAPILHSHR was tested, and the protein stability index was 0.585 ± 0.019.
Work on VFSCPLLFASFS yielded a protein stability index of 0.672 ± 0.041.
For VFSPVLVCKMGE, the protein stability index was 0.698 ± 0.024.
VFTCTGVLFGGM was tested, and the protein stability index was 0.768 ± 0.12.
VFTSPPPLPSPP showed a protein stability index of 0.728 ± 0.029.
VGADVLAYRGVA gave a protein stability index of 0.604 ± 0.025.
VGASRAGGEVSR gave a protein stability index of 0.651 ± 0.013.
With VGCACGYGGCGL the protein stability index was 0.682 ± 0.058.
Work on VGCEGGRRGVGG yielded a protein stability index of 0.65 ± 0.059.
With VGCSDFSAIVLD the protein stability index was 0.713 ± 0.069.
Sequence VGCSSHAFGSSV has a protein stability index of 0.686 ± 0.053.
VGCSVGHFQRLF gave a protein stability index of 0.677 ± 0.017.
In the case of VGDGQGGGGQGG, the protein stability index is reported as 0.661 ± 0.022.
VGDGQGWGGQGG gave a protein stability index of 0.688 ± 0.0075.
VGDRCDECGFWA gave a protein stability index of 0.699 ± 0.0043.
VGFLGFFVVEGV gave a protein stability index of 0.545 ± 0.033.
VGGGGGAEGAGW was tested, and the protein stability index was 0.739 ± 0.12.
In the case of VGGGGGGGWWHW, the protein stability index is reported as 0.805 ± 0.011.
Sequence VGGGGLGVEAWG has a protein stability index of 0.613 ± 0.059.
Work on VGGGGVGAGVWG yielded a protein stability index of 0.653 ± 0.086.
Sequence VGGGPAALGMWI has a protein stability index of 0.689 ± 0.077.
For VGGGVGVPGVLG, the protein stability index was 0.672 ± 0.012.
For VGGIVGGFCRGR, the protein stability index was 0.701 ± 0.069.
VGGPRVLVRGVY was tested, and the protein stability index was 0.6754 ± 0.0055.
VGGRVESLGVGD was tested, and the protein stability index was 0.584 ± 0.017.
Sequence VGGVGGLWVGAV has a protein stability index of 0.7143 ± 0.0018.
VGGVWAGGGCSF showed a protein stability index of 0.651 ± 0.12.
VGGWGWLPLPWC was tested, and the protein stability index was 0.678 ± 0.13.
Sequence VGGWWAREVVEL has a protein stability index of 0.753 ± 0.0085.
In the case of VGHCSEGTFYPG, the protein stability index is reported as 0.65 ± 0.12.
With VGICWLTEPVLY the protein stability index was 0.731 ± 0.089.
Sequence VGKFGGAGGICQ has a protein stability index of 0.685 ± 0.013.
VGKIRWIGFGGW was tested, and the protein stability index was 0.695 ± 0.051.
VGLGGTGGESRY gave a protein stability index of 0.706 ± 0.027.
With VGLGMREWLGVE the protein stability index was 0.758 ± 0.026.
In the case of VGNPHKRGWRAR, the protein stability index is reported as 0.60903 ± 0.00027.
For VGPFRISRSFTG, the protein stability index was 0.7174 ± 0.004.
VGQGVPEGGGQW showed a protein stability index of 0.726 ± 0.018.
For VGRGEEAHTPRR, the protein stability index was 0.678 ± 0.013.
In the case of VGRGGGVSLGGR, the protein stability index is reported as 0.671 ± 0.082.
VGRGGPGVGGSW gave a protein stability index of 0.736 ± 0.043.
Sequence VGRVNRNERCQR has a protein stability index of 0.587 ± 0.022.
Sequence VGSSGDEWGRYG has a protein stability index of 0.7332 ± 0.0046.
In the case of VGVCCLSGDGFV, the protein stability index is reported as 0.6889 ± 0.0048.
Work on VGVGGEQISIEY yielded a protein stability index of 0.723 ± 0.054.
VGVGWAALRWYG was tested, and the protein stability index was 0.6761 ± 0.0047.
For VGVIREGKENGN, the protein stability index was 0.656 ± 0.023.
For VGVSGAGFSWGG, the protein stability index was 0.712 ± 0.0095.
For VGVVGGRWCGRG, the protein stability index was 0.648 ± 0.0099.
VGVVLNEPYSQE gave a protein stability index of 0.702 ± 0.011.
For VGVWWWWCFGSW, the protein stability index was 0.595 ± 0.069.
For VGWAGHVWFWWG, the protein stability index was 0.683 ± 0.064.
VGWFELWGVSSG gave a protein stability index of 0.76 ± 0.052.
In the case of VGWHFPDGVVDC, the protein stability index is reported as 0.8 ± 0.12.
For VGWQGRWWVWGG, the protein stability index was 0.5679 ± 0.005.
For VGWVLGCRGLGW, the protein stability index was 0.694 ± 0.067.
VHDPLLPIFLIR was tested, and the protein stability index was 0.684 ± 0.042.
VHFGVLSLGKRH was tested, and the protein stability index was 0.769 ± 0.16.
Sequence VHRMWINARDCV has a protein stability index of 0.676 ± 0.05.
VIFCVGRFSGGS gave a protein stability index of 0.645 ± 0.085.
VIFIRCFNFQDG showed a protein stability index of 0.614 ± 0.052.
Work on VILFINRIDDGK yielded a protein stability index of 0.616 ± 0.057.
With VIQMVIYEKDQR the protein stability index was 0.681 ± 0.04.
In the case of VIRQPSSKLWIQ, the protein stability index is reported as 0.6559 ± 0.0057.
For VISLFSSLCSRL, the protein stability index was 0.797 ± 0.05.
VIVHFIWPSVGR was tested, and the protein stability index was 0.652 ± 0.03.
With VKASPSDGGIVP the protein stability index was 0.725 ± 0.035.
For VKESILVGRYDC, the protein stability index was 0.709 ± 0.016.
VKKSTPIKKPQT showed a protein stability index of 0.651 ± 0.062.
In the case of VKPVLEILKTKT, the protein stability index is reported as 0.663 ± 0.037.
Work on VKSMVCQGHLGI yielded a protein stability index of 0.722 ± 0.043.
VKVKRCVRKVGG showed a protein stability index of 0.687 ± 0.046.
Work on VLANAAGLEGFA yielded a protein stability index of 0.681 ± 0.041.
VLCVDQVEVSFV showed a protein stability index of 0.678 ± 0.03.
VLDCRDVSCHVL showed a protein stability index of 0.661 ± 0.0081.
Sequence VLDPRGEFFSHP has a protein stability index of 0.657 ± 0.044.
Sequence VLFLESWLRFRT has a protein stability index of 0.623 ± 0.073.
VLGSYFNGIWLF showed a protein stability index of 0.534 ± 0.019.
In the case of VLGVDVIQVCPI, the protein stability index is reported as 0.682 ± 0.018.
Sequence VLGWGSKCLVGS has a protein stability index of 0.7 ± 0.035.
VLHGFGSLRDRV was tested, and the protein stability index was 0.717 ± 0.017.
Work on VLLAAFLLPGLR yielded a protein stability index of 0.634 ± 0.033.
VLLQDLSYLIGQ was tested, and the protein stability index was 0.707 ± 0.065.
VLLSSPSLLFFE showed a protein stability index of 0.703 ± 0.039.
VLLSTLHLRGFG showed a protein stability index of 0.537 ± 0.04.
VLMDVVGLGSSS showed a protein stability index of 0.683 ± 0.019.
For VLNRFENRNSKA, the protein stability index was 0.7098 ± 0.0035.
With VLPLRPGRKLSG the protein stability index was 0.664 ± 0.054.
In the case of VLPVLTWWGELG, the protein stability index is reported as 0.733 ± 0.018.
VLRCVLTYGKPS gave a protein stability index of 0.673 ± 0.031.
VLRGYRRVGVPP gave a protein stability index of 0.616 ± 0.016.
In the case of VLRSSFYLSFPR, the protein stability index is reported as 0.611 ± 0.013.
For VLRSTQGAINRI, the protein stability index was 0.717 ± 0.02.
Sequence VLSFFQCSWVLL has a protein stability index of 0.574 ± 0.057.
VLSFPYLSRKCI was tested, and the protein stability index was 0.546 ± 0.037.
Sequence VLSGAPGLIVYA has a protein stability index of 0.602 ± 0.043.
VLSLPPLFRTSA showed a protein stability index of 0.636 ± 0.0086.
In the case of VLTSRCGLLFVL, the protein stability index is reported as 0.62 ± 0.044.
With VLTSSVLPSFFP the protein stability index was 0.627 ± 0.018.
For VLVPVDRCGYIG, the protein stability index was 0.619 ± 0.11.
In the case of VLWIVDLFACEG, the protein stability index is reported as 0.585 ± 0.0037.
VLYPVISVLTTL gave a protein stability index of 0.629 ± 0.011.
In the case of VMKAVNKTKRNV, the protein stability index is reported as 0.664 ± 0.041.
VMVTMGNMDSEA showed a protein stability index of 0.635 ± 0.031.
VMVYLRSPLLDR showed a protein stability index of 0.748 ± 0.059.
VNAGAPGVLAWV showed a protein stability index of 0.739 ± 0.021.
Work on VNAVLFWPRQLS yielded a protein stability index of 0.619 ± 0.013.
VNFGWWVVGSRS was tested, and the protein stability index was 0.685 ± 0.062.
Work on VNHVVRFFFSSH yielded a protein stability index of 0.676 ± 0.019.
With VPAALAGADCSP the protein stability index was 0.763 ± 0.085.
Sequence VPAGDPPGAWKA has a protein stability index of 0.746 ± 0.025.
VPALLPLLPSPP was tested, and the protein stability index was 0.712 ± 0.03.
Work on VPFPHTHPLLTP yielded a protein stability index of 0.757 ± 0.054.
In the case of VPITLRFSFLTP, the protein stability index is reported as 0.598 ± 0.073.
Sequence VPPCESLSALSS has a protein stability index of 0.707 ± 0.034.
Work on VPPPLPSPPSHP yielded a protein stability index of 0.761 ± 0.038.
VPPPLTSPSWHF gave a protein stability index of 0.6825 ± 0.0036.
For VPRLARTRPKHA, the protein stability index was 0.641 ± 0.042.
In the case of VPRPLPPSPLLV, the protein stability index is reported as 0.644 ± 0.13.
Work on VPRPPGPPPGPV yielded a protein stability index of 0.667 ± 0.053.
VPRTGSLHARLP was tested, and the protein stability index was 0.715 ± 0.03.
VPVISYVQTSIA showed a protein stability index of 0.558 ± 0.033.
Sequence VPVMVVCVPSKE has a protein stability index of 0.715 ± 0.035.
VQDALPLLVPPF showed a protein stability index of 0.762 ± 0.021.
VQGEGVVAISMT gave a protein stability index of 0.712 ± 0.021.
Work on VQGGSSCLWSVR yielded a protein stability index of 0.72 ± 0.01.
VQGIKFRNSVEV showed a protein stability index of 0.665 ± 0.044.
Sequence VQLCQGWIGSES has a protein stability index of 0.676 ± 0.0089.
VQRKVCTFRRSD gave a protein stability index of 0.665 ± 0.14.
VQSSLFGLGVQC gave a protein stability index of 0.566 ± 0.033.
VQTLYSQLPALR showed a protein stability index of 0.78 ± 0.069.
Sequence VQWSRFRVGMAE has a protein stability index of 0.848 ± 0.19.
VRAGLAGGPGRV gave a protein stability index of 0.684 ± 0.024.
Work on VRAWIGDVENGV yielded a protein stability index of 0.574 ± 0.058.
Work on VRCGCDFRVSRC yielded a protein stability index of 0.717 ± 0.062.
VRCLGAVEDCLS was tested, and the protein stability index was 0.657 ± 0.013.
With VRDGGLCYLAQL the protein stability index was 0.667 ± 0.019.
